From patent US20210139548A1 (published 2021)
*1 amine or outer side, *2 acyl side, *3 side chain or, on linkers, in order; H or OH if unused. Side-chain parts run from the residue outwards. The star is where a group is joined. C18 diacid = O=C(O)CCCCCCCCCCCCCCCCC(=O)*; γGlu = O=C(O)[C@H](CCC(=O)[*:2])N[*:1]; Isovaleryl = CC(C)CC(=O)*; AEEA = NCCOCCOCC(=O)O

T1: human neuropeptide Y2 receptor (human, UniProt P49146 1-381)
T1 construct: whole, on cells; also called hNPY2 receptor; hNPY2-R
T1 sequence (looked up): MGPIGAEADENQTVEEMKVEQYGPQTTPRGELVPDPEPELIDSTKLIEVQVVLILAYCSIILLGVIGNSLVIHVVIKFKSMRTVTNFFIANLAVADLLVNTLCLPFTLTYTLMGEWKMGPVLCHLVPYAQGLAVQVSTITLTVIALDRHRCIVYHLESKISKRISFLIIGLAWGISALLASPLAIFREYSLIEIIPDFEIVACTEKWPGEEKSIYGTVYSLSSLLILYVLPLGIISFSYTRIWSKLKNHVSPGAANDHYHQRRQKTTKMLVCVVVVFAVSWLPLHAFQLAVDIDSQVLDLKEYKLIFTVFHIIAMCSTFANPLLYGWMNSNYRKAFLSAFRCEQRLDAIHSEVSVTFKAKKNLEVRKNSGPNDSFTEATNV


Target: T1, human neuropeptide Y2 receptor
Assay: radioligand competition (125I-PYY(1-36)), hNPY2R membranes
In short: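 Commercial human Y2 receptor membranes (0.5 μg protein/well) were incubated with peptide for 2 h at room temperature in 50 mM HEPES, 5 mM MgCl₂, 1 mM CaCl₂, pH 7.4, with 0.2% ovalbumin. Bound radioligand was separated on PEI-soaked GF/C filters and counted by scintillation, and IC₅₀ came from nonlinear sigmoidal regression.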

Row | Binder | Ki
1 | Isovaleryl-APEK([AEEA-AEEA-γGlu-C18 diacid])PEEEASPEELQAYYVSLRHYYNWLTRQRY-NH2 (SMILES CC(C)CC(=O)N[C@@H](C)C(=O)N1CCC[C@H]1C(=O)N[C@@H](CCC(=O)O)C(=O)N[C@@H](CCCCNC(=O)COCCOCCNC(=O)COCCOCCNC(=O)CC[C@H](NC(=O)CCCCCCCCCCCCCCCCC(=O)O)C(=O)O)C(=O)N1CCC[C@H]1C(=O)N[C@@H](CCC(=O)O)C(=O)N[C@@H](CCC(=O)O)C(=O)N[C@@H](CCC(=O)O)C(=O)N[C@@H](C)C(=O)N[C@@H](CO)C(=O)N1CCC[C@H]1C(=O)N[C@@H](CCC(=O)O)C(=O)N[C@@H](CCC(=O)O)C(=O)N[C@@H](CC(C)C)C(=O)N[C@@H](CCC(N)=O)C(=O)N[C@@H](C)C(=O)N[C@@H](Cc1ccc(O)cc1)C(=O)N[C@@H](Cc1ccc(O)cc1)C(=O)N[C@H](C(=O)N[C@@H](CO)C(=O)N[C@@H](CC(C)C)C(=O)N[C@@H](CCCNC(=N)N)C(=O)N[C@@H](Cc1c[nH]cn1)C(=O)N[C@@H](Cc1ccc(O)cc1)C(=O)N[C@@H](Cc1ccc(O)cc1)C(=O)N[C@@H](CC(N)=O)C(=O)N[C@@H](Cc1c[nH]c2ccccc12)C(=O)N[C@@H](CC(C)C)C(=O)N[C@H](C(=O)N[C@@H](CCCNC(=N)N)C(=O)N[C@@H](CCC(N)=O)C(=O)N[C@@H](CCCNC(=N)N)C(=O)N[C@@H](Cc1ccc(O)cc1)C(N)=O)[C@@H](C)O)C(C)C) [Compound 68] | 8.47 nM
2 | Isovaleryl-APEK([AEEA-AEEA-γGlu-C18 diacid])PEEDSSAEELQRYYVSLRHYYNWLTRQRY-NH2 (SMILES CC(C)CC(=O)N[C@@H](C)C(=O)N1CCC[C@H]1C(=O)N[C@@H](CCC(=O)O)C(=O)N[C@@H](CCCCNC(=O)COCCOCCNC(=O)COCCOCCNC(=O)CC[C@H](NC(=O)CCCCCCCCCCCCCCCCC(=O)O)C(=O)O)C(=O)N1CCC[C@H]1C(=O)N[C@@H](CCC(=O)O)C(=O)N[C@@H](CCC(=O)O)C(=O)N[C@@H](CC(=O)O)C(=O)N[C@@H](CO)C(=O)N[C@@H](CO)C(=O)N[C@@H](C)C(=O)N[C@@H](CCC(=O)O)C(=O)N[C@@H](CCC(=O)O)C(=O)N[C@@H](CC(C)C)C(=O)N[C@@H](CCC(N)=O)C(=O)N[C@@H](CCCNC(=N)N)C(=O)N[C@@H](Cc1ccc(O)cc1)C(=O)N[C@@H](Cc1ccc(O)cc1)C(=O)N[C@H](C(=O)N[C@@H](CO)C(=O)N[C@@H](CC(C)C)C(=O)N[C@@H](CCCNC(=N)N)C(=O)N[C@@H](Cc1c[nH]cn1)C(=O)N[C@@H](Cc1ccc(O)cc1)C(=O)N[C@@H](Cc1ccc(O)cc1)C(=O)N[C@@H](CC(N)=O)C(=O)N[C@@H](Cc1c[nH]c2ccccc12)C(=O)N[C@@H](CC(C)C)C(=O)N[C@H](C(=O)N[C@@H](CCCNC(=N)N)C(=O)N[C@@H](CCC(N)=O)C(=O)N[C@@H](CCCNC(=N)N)C(=O)N[C@@H](Cc1ccc(O)cc1)C(N)=O)[C@@H](C)O)C(C)C) [Compound 69] | 5.74 nM
3 | Isovaleryl-APEK([AEEA-AEEA-γGlu-C18 diacid])PEEAASPEELQRYEVSLRHYYNWLTRQRY-NH2 (SMILES CC(C)CC(=O)N[C@@H](C)C(=O)N1CCC[C@H]1C(=O)N[C@@H](CCC(=O)O)C(=O)N[C@@H](CCCCNC(=O)COCCOCCNC(=O)COCCOCCNC(=O)CC[C@H](NC(=O)CCCCCCCCCCCCCCCCC(=O)O)C(=O)O)C(=O)N1CCC[C@H]1C(=O)N[C@@H](CCC(=O)O)C(=O)N[C@@H](CCC(=O)O)C(=O)N[C@@H](C)C(=O)N[C@@H](C)C(=O)N[C@@H](CO)C(=O)N1CCC[C@H]1C(=O)N[C@@H](CCC(=O)O)C(=O)N[C@@H](CCC(=O)O)C(=O)N[C@@H](CC(C)C)C(=O)N[C@@H](CCC(N)=O)C(=O)N[C@@H](CCCNC(=N)N)C(=O)N[C@@H](Cc1ccc(O)cc1)C(=O)N[C@@H](CCC(=O)O)C(=O)N[C@H](C(=O)N[C@@H](CO)C(=O)N[C@@H](CC(C)C)C(=O)N[C@@H](CCCNC(=N)N)C(=O)N[C@@H](Cc1c[nH]cn1)C(=O)N[C@@H](Cc1ccc(O)cc1)C(=O)N[C@@H](Cc1ccc(O)cc1)C(=O)N[C@@H](CC(N)=O)C(=O)N[C@@H](Cc1c[nH]c2ccccc12)C(=O)N[C@@H](CC(C)C)C(=O)N[C@H](C(=O)N[C@@H](CCCNC(=N)N)C(=O)N[C@@H](CCC(N)=O)C(=O)N[C@@H](CCCNC(=N)N)C(=O)N[C@@H](Cc1ccc(O)cc1)C(N)=O)[C@@H](C)O)C(C)C) [Compound 70] | 4.86 nM

Binders with a lower Ki, results first:

Row | Ki | Binder
4 | 1.02 nM | Isovaleryl-APEK([AEEA-AEEA-γGlu-C18 diacid])PEEDASPEELQRYYVEIRHYYNWLTRQRY-NH2 (SMILES CC[C@H](C)[C@H](NC(=O)[C@H](CCC(=O)O)NC(=O)[C@@H](NC(=O)[C@H](Cc1ccc(O)cc1)NC(=O)[C@H](Cc1ccc(O)cc1)NC(=O)[C@H](CCCNC(=N)N)NC(=O)[C@H](CCC(N)=O)NC(=O)[C@H](CC(C)C)NC(=O)[C@H](CCC(=O)O)NC(=O)[C@H](CCC(=O)O)NC(=O)[C@@H]1CCCN1C(=O)[C@H](CO)NC(=O)[C@H](C)NC(=O)[C@H](CC(=O)O)NC(=O)[C@H](CCC(=O)O)NC(=O)[C@H](CCC(=O)O)NC(=O)[C@@H]1CCCN1C(=O)[C@H](CCCCNC(=O)COCCOCCNC(=O)COCCOCCNC(=O)CC[C@H](NC(=O)CCCCCCCCCCCCCCCCC(=O)O)C(=O)O)NC(=O)[C@H](CCC(=O)O)NC(=O)[C@@H]1CCCN1C(=O)[C@H](C)NC(=O)CC(C)C)C(C)C)C(=O)N[C@@H](CCCNC(=N)N)C(=O)N[C@@H](Cc1c[nH]cn1)C(=O)N[C@@H](Cc1ccc(O)cc1)C(=O)N[C@@H](Cc1ccc(O)cc1)C(=O)N[C@@H](CC(N)=O)C(=O)N[C@@H](Cc1c[nH]c2ccccc12)C(=O)N[C@@H](CC(C)C)C(=O)N[C@H](C(=O)N[C@@H](CCCNC(=N)N)C(=O)N[C@@H](CCC(N)=O)C(=O)N[C@@H](CCCNC(=N)N)C(=O)N[C@@H](Cc1ccc(O)cc1)C(N)=O)[C@@H](C)O) [Compound 65]
5 | 4.37 nM | Isovaleryl-APEK([AEEA-AEEA-γGlu-C18 diacid])PEEDSAPEELQRYYVSLRHYYNWLTRQRY-NH2 (SMILES CC(C)CC(=O)N[C@@H](C)C(=O)N1CCC[C@H]1C(=O)N[C@@H](CCC(=O)O)C(=O)N[C@@H](CCCCNC(=O)COCCOCCNC(=O)COCCOCCNC(=O)CC[C@H](NC(=O)CCCCCCCCCCCCCCCCC(=O)O)C(=O)O)C(=O)N1CCC[C@H]1C(=O)N[C@@H](CCC(=O)O)C(=O)N[C@@H](CCC(=O)O)C(=O)N[C@@H](CC(=O)O)C(=O)N[C@@H](CO)C(=O)N[C@@H](C)C(=O)N1CCC[C@H]1C(=O)N[C@@H](CCC(=O)O)C(=O)N[C@@H](CCC(=O)O)C(=O)N[C@@H](CC(C)C)C(=O)N[C@@H](CCC(N)=O)C(=O)N[C@@H](CCCNC(=N)N)C(=O)N[C@@H](Cc1ccc(O)cc1)C(=O)N[C@@H](Cc1ccc(O)cc1)C(=O)N[C@H](C(=O)N[C@@H](CO)C(=O)N[C@@H](CC(C)C)C(=O)N[C@@H](CCCNC(=N)N)C(=O)N[C@@H](Cc1c[nH]cn1)C(=O)N[C@@H](Cc1ccc(O)cc1)C(=O)N[C@@H](Cc1ccc(O)cc1)C(=O)N[C@@H](CC(N)=O)C(=O)N[C@@H](Cc1c[nH]c2ccccc12)C(=O)N[C@@H](CC(C)C)C(=O)N[C@H](C(=O)N[C@@H](CCCNC(=N)N)C(=O)N[C@@H](CCC(N)=O)C(=O)N[C@@H](CCCNC(=N)N)C(=O)N[C@@H](Cc1ccc(O)cc1)C(N)=O)[C@@H](C)O)C(C)C) [Compound 67]
